We go through 125 sequences from the supplement of paper PMC9112550, “Optimization of the antimicrobial peptide Bac7 by deep mutational scanning” (BMC Biology, 2022).

This data set has as its system Escherichia coli TOP10. Briefly: shrunken log2 fold change of peptide-encoding DNA abundance (4.5 h post-induction vs induction); higher = less antimicrobial activity (less host growth inhibition). Conditions: time post-induction: 4.5 h; library: site-saturation at positions 5, 18, 19, 20.
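Also: peptides expressed intracellularly from a pBAD plasmid library in pooled LB shake-flask culture, induced with 0.3% L-arabinose, DNA abundance read by NGS, three biological replicates, DESeq2 with apeglm shrinkage.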

For the sequence RRIRGRPPRLPRPRPRPCGNPRP, the “shrunken log2 fold change” value worked out at 0.255.
For RRIRMRPPRLPRPRPRPLTYPRP the value was -0.0782.
The same measure for RRIRKRPPRLPRPRPRPDPIPRP: 0.129; for RRIRCRPPRLPRPRPRPPQIPRP: 0.328.
The same measure for RRIRPRPPRLPRPRPRPVGAPRP: 0.561; for RRIRWRPPRLPRPRPRPNPVPRP: -0.266; for RRIRLRPPRLPRPRPRPEGEPRP: 0.624.
For the sequence RRIRWRPPRLPRPRPRPHCRPRP, the “shrunken log2 fold change” value was found to be 0.0889.
Take RRIRVRPPRLPRPRPRPFNDPRP: the “shrunken log2 fold change” value was -0.416.
The same measure for RRIRARPPRLPRPRPRPVHQPRP: 0.346; for RRIRFRPPRLPRPRPRPKAGPRP: 0.307; for RRIRDRPPRLPRPRPRPNRYPRP: -0.0973.
Regarding RRIRGRPPRLPRPRPRPPMQPRP, the “shrunken log2 fold change” value came to 1.12.
The same measure for RRIRNRPPRLPRPRPRPKYCPRP: -0.225; for RRIRVRPPRLPRPRPRPFGAPRP: 0.258; for RRIRGRPPRLPRPRPRPFISPRP: 0.183.
For RRIRTRPPRLPRPRPRPWHEPRP the value was 0.111.
The same measure for RRIRTRPPRLPRPRPRPKPAPRP: 0.0421.
For the sequence RRIRPRPPRLPRPRPRPMVAPRP, the “shrunken log2 fold change” value was 0.208.
RRIRIRPPRLPRPRPRPVYHPRP: the “shrunken log2 fold change” value was -0.262.
For RRIRKRPPRLPRPRPRPEMPPRP the value was 0.668; for RRIRMRPPRLPRPRPRPSIKPRP, -0.0928; for RRIRFRPPRLPRPRPRPMWRPRP, -0.0033.
For RRIRTRPPRLPRPRPRPDPDPRP the value was -0.0398.
On to RRIRYRPPRLPRPRPRPPAQPRP, for which the “shrunken log2 fold change” value was 0.23.
For RRIRHRPPRLPRPRPRPTFAPRP the value was 3.26; for RRIRFRPPRLPRPRPRPVPNPRP, -0.0743; for RRIRVRPPRLPRPRPRPPRTPRP, 0.331.
The same measure for RRIRARPPRLPRPRPRPPPIPRP: 1; for RRIRQRPPRLPRPRPRPEDDPRP: -0.14; for RRIRERPPRLPRPRPRPQHDPRP: -0.265.
As for RRIRRRPPRLPRPRPRPQKMPRP, the “shrunken log2 fold change” value is -0.02.
The same measure for RRIRARPPRLPRPRPRPLMPPRP: 0.197; for RRIRERPPRLPRPRPRPWDTPRP: -0.623; for RRIRTRPPRLPRPRPRPLHSPRP: 0.186.
Take RRIRMRPPRLPRPRPRPEVGPRP: the “shrunken log2 fold change” value is 2.56.
For RRIRRRPPRLPRPRPRPKNCPRP the value was 0.0654.
The same measure for RRIRLRPPRLPRPRPRPRRTPRP: 0.354; for RRIRSRPPRLPRPRPRPMVGPRP: 0.158.
The same measure for RRIRDRPPRLPRPRPRPPNIPRP: -0.0733; for RRIRVRPPRLPRPRPRPTMFPRP: -0.158.
For RRIRCRPPRLPRPRPRPIGRPRP, the “shrunken log2 fold change” value was -0.0502.
The same measure for RRIRKRPPRLPRPRPRPCTGPRP: 0.0143.
For RRIRFRPPRLPRPRPRPCGMPRP the value was -0.24; for RRIRSRPPRLPRPRPRPLWVPRP, 0.0823; for RRIRDRPPRLPRPRPRPSMSPRP, -0.33.
For RRIRQRPPRLPRPRPRPRMAPRP the value was 0.0146; for RRIRIRPPRLPRPRPRPRYQPRP, 0.00748.
In the case of RRIRERPPRLPRPRPRPTQTPRP, the “shrunken log2 fold change” value was -0.00311.
RRIRERPPRLPRPRPRPTDCPRP: the “shrunken log2 fold change” value is -0.399.
In the case of RRIRCRPPRLPRPRPRPHCAPRP, the “shrunken log2 fold change” value was -0.254.
The same measure for RRIRWRPPRLPRPRPRPPFDPRP: 0.445.
The same measure for RRIRERPPRLPRPRPRPCEVPRP: 0.028; for RRIRDRPPRLPRPRPRPYTLPRP: -0.153; for RRIRWRPPRLPRPRPRPSFVPRP: -0.284.
For RRIRNRPPRLPRPRPRPINHPRP the value was -0.705; for RRIRNRPPRLPRPRPRPSRYPRP, -0.000156; for RRIRDRPPRLPRPRPRPLWGPRP, 0.294.
Take RRIRARPPRLPRPRPRPFNCPRP: the “shrunken log2 fold change” value was -0.357.
With RRIRSRPPRLPRPRPRPLMIPRP, the “shrunken log2 fold change” value was -0.764.
In the case of RRIRLRPPRLPRPRPRPDKGPRP, the “shrunken log2 fold change” value was -0.162.
The same measure for RRIRNRPPRLPRPRPRPCFGPRP: 0.0347.
For RRIRDRPPRLPRPRPRPITLPRP the value was -0.0934; for RRIRERPPRLPRPRPRPKDGPRP, 0.0062; for RRIRYRPPRLPRPRPRPEAQPRP, 0.151.
For RRIRWRPPRLPRPRPRPKTCPRP the value was 0.174.
Regarding RRIRVRPPRLPRPRPRPRRAPRP, the “shrunken log2 fold change” value turned out to be 0.751.
For the sequence RRIRQRPPRLPRPRPRPNIRPRP, the “shrunken log2 fold change” value is 0.0516.
For RRIRERPPRLPRPRPRPKDYPRP the value was 0.101.
For RRIRCRPPRLPRPRPRPTTDPRP the value was -0.0121; for RRIRNRPPRLPRPRPRPFHYPRP, -0.925; for RRIRVRPPRLPRPRPRPAPKPRP, 0.438.
Consider RRIRYRPPRLPRPRPRPLVMPRP, for which the “shrunken log2 fold change” value was -0.372.
The same measure for RRIRVRPPRLPRPRPRPQEAPRP: -0.0448; for RRIRPRPPRLPRPRPRPKMWPRP: 0.299.
The same measure for RRIRLRPPRLPRPRPRPVKNPRP: -0.176.
For RRIRWRPPRLPRPRPRPYQIPRP the value was 0.0326; for RRIRYRPPRLPRPRPRPYGKPRP, -1.27.
As for RRIRIRPPRLPRPRPRPRTGPRP, the “shrunken log2 fold change” value is -0.0659.
Consider RRIRSRPPRLPRPRPRPPFRPRP, for which the “shrunken log2 fold change” value stood at 0.193.
For RRIRPRPPRLPRPRPRPRWCPRP, the “shrunken log2 fold change” value is 0.171.
RRIRDRPPRLPRPRPRPVDCPRP: the “shrunken log2 fold change” value was -0.0327.
On to RRIRDRPPRLPRPRPRPYPSPRP, for which the “shrunken log2 fold change” value was -0.167.
For RRIRPRPPRLPRPRPRPKGDPRP the value was 0.022; for RRIRLRPPRLPRPRPRPHQWPRP, -0.0297.
For RRIRGRPPRLPRPRPRPTLNPRP the value was 0.835.
The same measure for RRIRDRPPRLPRPRPRPNGWPRP: 0.612.
Turning to RRIRDRPPRLPRPRPRPQHVPRP, the “shrunken log2 fold change” value amounted to 0.0427.
RRIRNRPPRLPRPRPRPAEDPRP: the “shrunken log2 fold change” value was found to be 0.0275.
For RRIRYRPPRLPRPRPRPGILPRP the value was -0.0404; for RRIRDRPPRLPRPRPRPFKMPRP, -0.0853; for RRIRFRPPRLPRPRPRPLNNPRP, -0.767.
For RRIRSRPPRLPRPRPRPLFDPRP the value was -0.335; for RRIRRRPPRLPRPRPRPMNLPRP, 0.0545; for RRIRMRPPRLPRPRPRPATGPRP, 0.15.
The same measure for RRIRIRPPRLPRPRPRPRFKPRP: -0.575; for RRIRRRPPRLPRPRPRPTTNPRP: 0.338; for RRIRTRPPRLPRPRPRPEPKPRP: 0.376.
Consider RRIRKRPPRLPRPRPRPAKKPRP, for which the “shrunken log2 fold change” value was determined as 1.06.
The same measure for RRIRCRPPRLPRPRPRPHGEPRP: 0.0148.
For RRIRPRPPRLPRPRPRPKCIPRP the value was -1.04.
For RRIRDRPPRLPRPRPRPDQQPRP the value was 0.0408; for RRIRRRPPRLPRPRPRPRTHPRP, 0.108; for RRIRFRPPRLPRPRPRPTKDPRP, -0.196.
Consider RRIRLRPPRLPRPRPRPSVAPRP, for which the “shrunken log2 fold change” value was -0.0589.
The same measure for RRIRTRPPRLPRPRPRPWCNPRP: -0.0437; for RRIRYRPPRLPRPRPRPYKRPRP: -2.31; for RRIRNRPPRLPRPRPRPWLGPRP: 0.0222.
For RRIRGRPPRLPRPRPRPITEPRP the value was 0.000184; for RRIRHRPPRLPRPRPRPQVLPRP, -0.0535.
Regarding RRIRRRPPRLPRPRPRPWCDPRP, the “shrunken log2 fold change” value stood at 0.0743.
For RRIRWRPPRLPRPRPRPQDRPRP the value was -0.0199.
The same measure for RRIRCRPPRLPRPRPRPKGCPRP: 0.00419; for RRIRFRPPRLPRPRPRPPEYPRP: -0.0154; for RRIRNRPPRLPRPRPRPLEAPRP: -0.00641.
The same measure for RRIRPRPPRLPRPRPRPEGYPRP: 0.128; for RRIRERPPRLPRPRPRPYFMPRP: -0.784.
RRIRYRPPRLPRPRPRPLDDPRP: the “shrunken log2 fold change” value is -0.115.
Regarding RRIRYRPPRLPRPRPRPWCPPRP, the “shrunken log2 fold change” value was -0.28.
The same measure for RRIRHRPPRLPRPRPRPFRAPRP: -0.211; for RRIRQRPPRLPRPRPRPEGDPRP: 0.00223.
For RRIRDRPPRLPRPRPRPEYQPRP the value was 0.637.
For RRIRVRPPRLPRPRPRPKIGPRP, the “shrunken log2 fold change” value is -0.0842.
For RRIRKRPPRLPRPRPRPFEWPRP the value was -0.0618; for RRIRTRPPRLPRPRPRPLHKPRP, 0.0334.
